The target of data set [1] is T1, linker histone H1.2 (unmodified, recombinant) (human, UniProt P16403 1-213).
T1 construct: human linker histone H1.2; also called non-modified H1.2; unmodified H1.2; source: E. coli BL21 (DE3), purified from inclusion bodies (His-tag resin); not shown: Strep-tag II, N-terminal, kept; His6, C-terminal, kept
In words: cross-linking; XL-MS: histone/Ub and SIRT1 at molar ratio 1:1 in 1x PBS, 2.75 mM BS3-H12/D12, 10 min on ice then 20 min at 30 °C; three biological replicates. The settings on record: both partners purified.

Another data set has as its target H1.2 (Homo sapiens, UniProt P16403 1-213). Description: condensate FRAP; 5 uM histone, 5 uM DNA; Condensates: 1x PBS, RT; array EMSA: agarose gel with competitor DNA, buffer not in the material. Conditions: protein: recombinant; tags: C-terminal His6; label: Atto-390 at 5' end of the reverse strand; blunt. On the technique in general: In EMSA bound probe runs differently from free probe, usually more slowly.

These results are taken from paper PMC8190259, “Site-specific ubiquitylation acts as a regulator of linker histone H1” (Nature Communications, 2021).

Sequence of H1.2 (P16403 whole entry): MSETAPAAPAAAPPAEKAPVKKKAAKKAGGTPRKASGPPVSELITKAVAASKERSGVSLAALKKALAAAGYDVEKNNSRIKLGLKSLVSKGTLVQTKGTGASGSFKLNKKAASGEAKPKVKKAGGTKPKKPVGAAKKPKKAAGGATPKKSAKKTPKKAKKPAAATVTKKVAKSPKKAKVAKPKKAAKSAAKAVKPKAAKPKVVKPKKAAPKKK
T1 sequence (P16403 whole entry): as above

B1: SIRT1 with N-terminal deletion (recombinant) (enzyme, human, UniProt Q96EB6 1-3, looked up)
chain: MADEAAAAGGEQEAQATAAAGEGDNGPGLQGPSREPPLADNLYDEDDDDEGEEEEEAAAAAIGYRDNLLFGDEIITNGFHSCESDEEDRASHASSSDWTPRPRIGPYTFVQQHLMIGTDPRTILKDLLPETIPPPELDDMTLWQIVINILSEPPKRKKRKDINTIEDAVKLLQECKKIIVLTGAGVSVSCGIPDFRSRDGIYARLAVDFPDLPDPQAMFDIEYFRKDPRPFFKFAKEIYPGQFQPSLCHKFIALSDKEGKLLRNYTQNIDTLEQVAGIQRIIQCHGSFATASCLICKYKVDCEAVRGDIFNQVVPRCPRCPADEPLAIMKPEIVFFGENLPEQFHRAMKYDKDEVDLLIVIGSSLKVRPVALIPSSIPHEVPQILINREPLPHLHFDVELLGDCDVIINELCHRLGGEYAKLCCNPVKLSEITEKPPRTQKELAYLSELPPTPLHVSEDSSSPERTSPPDSSVIVTLLDQAAKSNDDLDVSESKGCMEEKPQEVQTSRNVESIAEQMENPDLKNVGSSTGEKNERTSVAGTVRKCWPNRVAKEQISRRLDGNQYLFLPPNRYIFHGAEVYSDSEDDVLSSSSCGSNSDSGTCQSPSLEEPMEDESEIEEFYNGLEDEPDVPERAGGAGFGTDGDDQEAINEAISVKQEVTDMNYPSNKS
notes: human NAD+-dependent deacetylase SIRT1, aa 1-3 (construct of 669 aa: aa 1-3 + 82-747); human NAD+-dependent deacetylase SIRT1, aa 82-747 (construct of 669 aa: aa 1-3 + 82-747); source: E. coli BL21 (DE3), purified (HisTrap FF, size-exclusion chromatography); not shown: His6, C-terminal, kept
With B1, in data set [1], the binding result was “binds”.

B2: 601 DNA (dsDNA)
DNA 1: CTATACGCGGCCGCCCTGGAGAATCCCGGTGCCGAGGCCGCTCAATTGGTCGTAGCAAGCTCTAGCACCGCTTAAACGCACGTACGCGCTGTCCCCCGCGTTTTAACCGCCAAGGGGATTACTCCCTAGTCTCCAGGCACGTGTCAGATATATACATCCTGTGCATGTGGATCCGAAT
DNA 2: ATTCGGATCCACATGCACAGGATGTATATATCTGACACGTGCCTGGAGACTAGGGAGTAATCCCCTTGGCGGTTAAAACGCGGGGGACAGCGCGTACGTGCGTTTAAGCGGTGCTAGAGCTTGCTACGACCAATTGAGCGGCCTCGGCACCGGGATTCTCCAGGGCGGCCGCGTATAG
Take B2: the binding result with H1.2 was “binds”.
